Target: T1, biotinylated recombinant human BCMA (human, UniProt Q02223 1-54, biotinylated)
T1 construct: Bought reagent; also called biotinylated BCMA; Recombinant biotinylated human BCMA (Acro Biosystems Cat:# BC7-H82F0)
T1 sequence (looked up): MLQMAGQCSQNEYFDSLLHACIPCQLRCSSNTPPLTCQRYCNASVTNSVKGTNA
Assay: flow cytometry, biotinylated BCMA detected with streptavidin-APC on CAR T cells

B1: Anti-BCMA CAR of CTX-160 (CD28 co-stimulatory domain) (other)
chain: EVQLVESGGGLVQPGGSLKLSCAASGIDFSRYWMSWVRQAPGKGLEWIGEINPDSSTINYADSVKGRFTISRDNAKNTLYLQMNLSRAEDTALYYCASLYYDYGDAMDYWGQGTLVTVSSGGGGSGGGGSGGGGSDIQMTQSPSSLSASVGDRVTITCRASQSVDSNVAWYQQKPEKAPKSLIFSASLRFSGVPSRFSGSGSGTDFTLTISSLQPEDFATYYCQQYNSYPLTFGAGTKLEIKSAAAFVPVFLPAKPTTTPAPRPPTPAPTIASQPLSLRPEACRPAAGGAVHTRGLDFACDIYIWAPLAGTCGVLLLSLVITLYCNHRNRSKRSRLLHSDYMNMTPRRPGPTRKHYQPYAPPRDFAAYRSRVKFSRSADAPAYQQGQNQLYNELNLGRREEYDVLDKRRGRDPEMGGKPRRKNPQEGLYNELQKDKMAEAYSEIGMKGERRRGKGHDGLYQGLSTATKDTYDALHMQALPPR
notes: Chimeric antigen receptor on edited primary human T cells; also called anti-BCMA (CD28) CAR
- percent of cells that bound biotinylated BCMA: 60%

Reference: patent US20210108174A1 (CRISPR THERAPEUTICS, published 2021)
